# Test results as given in JP2019059762A (dated 2019).
# Where “and” joins values, the source holds several entries; their conditions need not be identical. Equal entries are not always repeated.
# T1: cynomolgus monkey IL-4 (cynomolgus monkey, UniProt P79339 25-153)
# T1 sequence (looked up): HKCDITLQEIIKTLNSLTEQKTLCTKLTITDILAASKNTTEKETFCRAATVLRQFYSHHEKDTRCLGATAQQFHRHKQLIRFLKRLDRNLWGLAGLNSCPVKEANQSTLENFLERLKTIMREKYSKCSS
# B1: huTBTI3_2_1 (bispecific antibody)
# chain 1: EVQLKESGPGLVAPGGSLSITCTVSGFSLTDSSINWVRQPPGKGLEWLGMIWGDGRIDYADALKSRLSISKDSSKSQVFLEMTSLRTDDTATYYCARDGYFPYAMDFWGQGTSVTVSSGGGGSGGGGSQVQLQQSGPELVKPGASVKISCKASGYSFTSYWIHWIKQRPGQGLEWIGMIDPSDGETRLNQRFQGRATLTVDESTSTAYMQLRSPTSEDSAVYYCTRLKEYGNYDSFYFDVWGAGTLVTVSSA
# chain 2: DIVLTQSPASLAVSLGQRATISCRASESVDSYGQSYMHWYQQKAGQPPKLLIYLASNLESGVPARFSGSGSRTDFTLTIDPVQAEDAATYYCQQNAEDSRTFGGGTKLEIKGGGGSGGGGSDIQMTQSPASLSVSVGDTITLTCHASQNIDVWLSWFQQKPGNIPKLLIYKASNLHTGVPSRFSGSGSGTGFTLTISSLQPEDIATYYCQQAHSYPFTFGGGTKLEIKR
# Experiments:
# Assay in all cases: cell-based or functional assay
# [1] = target: T1, cynomolgus monkey IL-4
# [2] = target: cynomolgus monkey IL-13 (cynomolgus monkey, UniProt Q0PW92 21-132)
# Chain of cynomolgus monkey IL-13 (Q0PW92 entry or part of it): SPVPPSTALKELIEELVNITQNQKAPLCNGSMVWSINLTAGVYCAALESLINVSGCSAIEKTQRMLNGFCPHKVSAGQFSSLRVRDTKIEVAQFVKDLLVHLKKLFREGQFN
# [3] = target: recombinant human IL-13 (human, UniProt P35225 35-146, limits assumed)
# Chain of recombinant human IL-13 (P35225 35-146 limits assumed): as the sequence (Q0PW92 entry or part of it) above, with S1G, K10R, V42M, N67S, R83H, V100L counted along it
binder,measurement,setting,value
B1,"geometric mean IC50, inhibition of cIL-4-induced TF-1 cell proliferation",[1],0.53 nM
same,"geometric mean IC50, inhibition of cIL-13-induced TF-1 cell proliferation",[2],0.45 nM
same,"IC50, inhibition of IL-4- and IL-13-induced LOX gene expression in IPF lung fibroblasts",[3],3 nM and 6 nM
same,"IC50, inhibition of IL-13-induced Stat6 phosphorylation in human whole blood monocytes, donor 002",[3],1.32 nM
same,"IC50, inhibition of IL-13-induced Stat6 phosphorylation in human whole blood monocytes, donor 229",[3],3.68 nM
same,"IC50, inhibition of IL-13-induced Stat6 phosphorylation in human whole blood monocytes, donor 245",[3],2.65 nM
same,"IC50, suppression of IL-6 release from IPF lung fibroblasts (LL97A) stimulated with rhIL-13 + rhIL-4 together",[3],7.8 nM
same,"IC50, suppression of eotaxin release from IPF lung fibroblasts (LL97A) stimulated with rhIL-13 + rhIL-4 together",[3],3.8 nM
same,"geometric mean IC50, inhibition of hIL-13-induced TF-1 cell proliferation",[3],3.02 nM
same,"geometric mean IC50 of three experiments, inhibition of IL-13-induced Stat6 phosphorylation",[3],2.34 nM
